Values belong to the binder of their own block, whether it stands above or below them.
Tests used:
[1] = molecular target: T1, recombinant human IL-6 (human, UniProt P05231 30-212); assay: SPR, antibody captured on Protein A, IL-6 as analyte
Method: Antibodies were captured on a Protein A chip (GE) by injecting 1:20 dilution of cell supernatant at 10 μL/min for 60 seconds. […] The sensor chip was regenerated by a 60 seconds injection of 10 mM Glycine pH 1.7 at flow rate of 50 μL/min. […] For this setup, 1 μg/mL of purified antibody was injected over a Protein A chip at 10 μL/min for 25-28 seconds. Data analysis for supernatant and purified samples were performed using BIAevaluation software (GE). All sensorgrams were double reference subtracted and fit using a 1:1 Langmuir binding model.

[2] = molecular target: VEGF (UniProt P15692-4 27-191, limits assumed); assay: cell-based or functional assay
Sequence of VEGF (P15692 other isoform, or with tags, fused parts or gaps limits assumed): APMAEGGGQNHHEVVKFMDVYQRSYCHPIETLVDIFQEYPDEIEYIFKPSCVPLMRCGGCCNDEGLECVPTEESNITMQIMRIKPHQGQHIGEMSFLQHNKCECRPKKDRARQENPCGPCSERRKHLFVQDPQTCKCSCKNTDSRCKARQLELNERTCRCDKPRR

[3] = molecular target: T2, biotinylated VEGF (R&D Systems) (UniProt P15692-4 27-191, limits assumed, biotinylated); assay: VEGF/VEGFR competitive ELISA as in example 3
T2 construct: also called btVEGF; bt-VEGF
T2 sequence (P15692 other isoform, or with tags, fused parts or gaps limits assumed): as above
Method: The plate was blocked in 2% bovine serum albumin (BSA) in PBS-Tween (PBST) for 2 hours.
This assay was performed as described in example 3.

[4] = molecular target: T1, recombinant human IL-6; assay: IL-6/IL-6R competitive ELISA as in example 3
Method: The plate was blocked in 2% bovine serum albumin (BSA) in PBS-Tween (PBST) for 2 hours. […] This mixture was then added to the ELISA plate following a wash step.

T1 sequence (P05231 30-212 limits assumed): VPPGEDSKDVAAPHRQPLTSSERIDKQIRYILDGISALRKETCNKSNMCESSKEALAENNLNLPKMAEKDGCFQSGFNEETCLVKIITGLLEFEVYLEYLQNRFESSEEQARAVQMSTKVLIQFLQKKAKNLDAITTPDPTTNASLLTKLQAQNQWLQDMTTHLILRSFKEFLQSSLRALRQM

- fold decrease in KD relative to wild-type [1]: ~2 fold
B1: anti-IL-6 antibody, heavy chain G66D, light chain wild-type (antibody, human IgG1, V domains shown)
VH: EVQLVESGGGLVQPGGSLRLSCAASGFTFSPFAMSWVRQAPGKGLEWVAKISPGGSWTYYSDTVTDRFTFSLDTSKSTAYLQMNSLRAEDTAVYYCARQLWGYYALDIWGQGTLVTVSS
VL: DIQLTQSPSSLSASVGDRVTITCSASISVSYMYWYQQKPGKAPKLLIYDMSNLASGVPSRFSGSGSGTDFTLTISSLQPEDFATYYCMQWSGYPYTFGQGTKVEIK
notes: see m23; engineered human IgG1

- cell based VEGF stimulated VEGFR reporter assay, average IC50 [2]: 0.35 nM
- IC50 [3]: 0.99 nM
- IC50 [4]: 0.23 nM
B2: VEGFR-AntiIL6-OG1802 (other)
heavy: SDTGRPFVEMYSEIPEIIHMTEGRELVIPCRVTSPNITVTLKKFPLDTLIPDGKRIIWDSRKGFIISNATYKEIGLLTCEATVNGHLYKTNYLTHRQTNTIIDVVLSPSHGIELSVGEKLVLNCTARTELNVGIDFNWEYPSSKHQHKKLVNRDLKTQSGSEMKKFLSTLTIDGVTRSDQGLYTCAASSGLMTKKNSTFVRVHEKGGGGSGGGGSEVQLVESGGGLVQPGGSLRLSCAASGFTFSPFAMHWVRQAPGKGLEWVAKISPGGSWTYYSDTVTDRFTFSLDTSKSTAYLQMNSLRAEDTAVYYCARQAWGYYALDIWGQGTLVTVSSASTKGPSVFPLAPSSKSTSGGTAALGCLVKDYFPEPVTVSWNSGALTSGVHTFPAVLQSSGLYSLSSVVTVPSSSLGTQTYICNVNHKPSNTKVDKKVEPKSCDKTHTCPPCPAPEAAGAPSVFLFPPKPKDTLMISRTPEVTCVVVDVSHEDPEVKFNWYVDGVEVHNAKTKPREEQYNSTYRVVSVLTVLHQDWLNGKEYKCKVSNKALPAPIEKTISKAKGQPREPQVYTLPPSREEMTKNQVSLTCLVKGFYPSDIAVEWESNGQPENNYKTTPPVLDSDGSFFLYSKLTVDKSRWQQGNVFSCSVMHEALHNHYTQKSLSCSPGK
light: DIQLTQSPSSLSASVGDRVTITCSASISVSYLYWYQQKPGKAPKLLIYDDSSLASGVPSRFSGSGSGTDFTLTISSLQPEDFATYYCQQWSGYPYTFGQGTKVEIKRTVAAPSVFIFPPSDEQLKSGTASVVCLLNNFYPREAKVQWKVDNALQSGNSQESVTEQDSKDSTYSLSSTLTLSKADYEKHKVYACEVTHQGLSSPVTKSFNRGEC
modifications: OG1802 phosphorylcholine polymer (about 794 kDa) on Cys L443C (EU numbering; 660C in SEQ ID NO: 170) by maleimide-cysteine chemistry, one polymer per molecule
notes: also called bioconjugate

- cell based VEGF stimulated VEGFR reporter assay, average IC50 [2]: 0.51 nM
- IC50 [3]: 1.98 nM
- IC50 [4]: 0.26 nM
B3: VEGFR-AntiIL6 (FIG. 27) (other)
heavy: B2 heavy
light: B2 light

From US20240209076A1 (KODIAK SCIENCES, published 2024)
